This is an account of results in patent US20200368361A1 (Regeneron, published 2020).

Test [1] concerns the target T1, human MSR1 extracellular domain expressed with a N-terminal nonahistidine tag (His9-hMSR1); R&D Systems, Cat … (human, UniProt P21757 77-451).
T1 construct: extracellular domain; Bought protein; also called His-hMSR1
T1 sequence: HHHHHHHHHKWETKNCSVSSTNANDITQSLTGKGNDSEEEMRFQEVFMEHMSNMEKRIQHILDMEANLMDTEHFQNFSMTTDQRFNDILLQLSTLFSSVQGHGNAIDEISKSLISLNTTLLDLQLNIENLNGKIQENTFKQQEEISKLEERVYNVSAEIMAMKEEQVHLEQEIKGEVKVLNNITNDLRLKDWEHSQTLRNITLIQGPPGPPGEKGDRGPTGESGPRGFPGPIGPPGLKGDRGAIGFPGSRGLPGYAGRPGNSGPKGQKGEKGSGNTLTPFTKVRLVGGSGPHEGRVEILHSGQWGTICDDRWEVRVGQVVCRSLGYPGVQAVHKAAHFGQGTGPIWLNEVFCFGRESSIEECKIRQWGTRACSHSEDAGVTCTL
In words: SPR Biacore, 25C, mAb captured by anti-human Fc, MSR1 as analyte.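 Also: Half-life of complex dissociation derived from kinetic rates, obtained by fitting Biacore 4000 sensorgrams to a 1:1 model including mass transport, run in HBS-ET buffer at pH 7.4.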
Method: (§1) Binding affinities and kinetic constants of human anti-MSR1 antibodies for different MSR1 reagents were determined by real-time surface plasmon resonance (Biacore 4000). All binding studies were performed in 10 mM HEPES, 150 mM NaCl, 3 mM EDTA, and 0.05% v/v Surfactant Tween-20, pH 7.4 (HBS-ET) running buffer at 25° C. and 37° C.
(§2) The association rate (kₐ) and dissociation rate (kd) were determined by fitting the real-time binding sensorgrams to a 1:1 binding model with mass transport limitation using Scrubber 2.0 c curve-fitting software.

Test [2] has as its target T2, monkey MSR1 extracellular domain expressed with a N-terminal hexahistidine-myc-myc tag (HMM-mfMSR1) (monkey (Macaca fascicularis)).
T2 chain: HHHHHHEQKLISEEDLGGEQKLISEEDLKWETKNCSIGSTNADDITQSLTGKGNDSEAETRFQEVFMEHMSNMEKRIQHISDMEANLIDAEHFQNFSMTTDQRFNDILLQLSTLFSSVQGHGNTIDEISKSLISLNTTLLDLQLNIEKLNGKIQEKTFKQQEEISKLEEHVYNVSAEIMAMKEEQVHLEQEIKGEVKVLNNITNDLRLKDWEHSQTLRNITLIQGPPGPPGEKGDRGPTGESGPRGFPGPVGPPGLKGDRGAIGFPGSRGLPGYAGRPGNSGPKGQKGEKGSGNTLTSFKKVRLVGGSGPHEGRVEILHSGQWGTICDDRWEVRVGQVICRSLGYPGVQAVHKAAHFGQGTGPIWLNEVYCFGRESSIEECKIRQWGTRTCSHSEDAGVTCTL
Described as above.
Method: as §1, §2

Test [3] concerns the target T1, human MSR1 extracellular domain …. As to the kind of experiment: SPR Biacore, 25C, mAb captured by anti-human Fc, MSR1 as analyte; calculated from kd fixed at 1.00E-05.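 Also: Half-life of complex dissociation derived from kinetic rates, obtained by fitting Biacore 4000 sensorgrams to a 1:1 model including mass transport, run in HBS-ET buffer at pH 7.4.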
Method: as §1, §2

B1: H1H27739P-N297Q (antibody, V domains shown)
VH: EVQLVESGGGLVQPGGSLRLSCTASGFTFSSYAMSWVRQAPGKGLEWVSAISGTGSSTYFTDSVKGRFAISRDNSKNTLYLQMNSLRAEDTAVYYCAKDGEWLSTVTLFDYWGQGTLVTVSS
VL: EIVMTQSPATLSVSPGERATLSCRASQSVSSNLAWYQQKPGQAPRLLIYGASTRATGIPARFSGSGSGTDFTLTISSLQSEDFALYYCQQYFIWPPHPTFGPGTKVDIKR
notes: human IgG1 Fc with N297Q point mutation
Consider B1, for which the entries for the “t½” value in test [1] and in test [2] were 11 min and 80 min, respectively.

B2: H1H27759P-N297Q (antibody, V domains shown)
VH: EVQLVESGGGFVQPGGSLRLSCAASGFTFSSYAMSWVRQAPGKGLEWVSAISGTGSNTYYADSVKGRFTISRDNSKNTLYLQMNSLRAEDTAVYYCAKDRVTTVTYYFDYWGQGTLVTVSS
VL: not shown
notes: human IgG1 Fc with N297Q point mutation; also called H1H27759P2-N297Q; H1xH27759P2
With B2, the “t½” value is 9 min in test [1] and 13 min in test [2].

B3: H1H27762P-N297Q (antibody, V domains shown)
VH: QVQLVQSGAEVKKPGSSVKVSCKASGGTFSRYDISWVRQAPGQGLEWMGGIIPIFGTSNYAQKFQGRVTITTDESTSTVYMELSSLRSEDTAVYYCARGGRYGWFDPWGQGTLVTVSS
VL: not shown
notes: human IgG1 Fc with N297Q point mutation; also called H1H27762P2-N297Q; H1H27762P2
B3: the “t½” value in test [1] and in test [2] was 6 min each time.

B4: H1H21234N-N297Q (antibody, V domains shown)
VH: QVQLQESGPGLVKPSETLSLTCTVTGGSISRNYWSWIRQPPGKGLEWIGYIYYSGSIDYNPSLKSRVTISVDTSKNQFSLKLSSMTAADTAVYYCARDRWNWKYGMDVWGQGTTVIVSS
VL: EIVLTQSPGTLSLSPGERATLSCRASQTVRNNYLAWYHQKPGQAPRLLIYGASSRATGIPDRFSGSGSGTDFTLTISRLEPEDFTVYYCHQYGNSPWTFGQGTKMEIKR
notes: as for B1
For B4, the “t½” value in test [3] is 1160 min; in test [2], 593 min.

B5: H1H27760P-N297Q (antibody, V domains shown)
VH: EVQLVESGGGLVQPGRSLRLSCAASGFTFDAYAMHWVRQAPGKGLEWVSGISWNSGSIGYADSVKGRFTISRDNAKNSLYLQMNSLREEDTALYYCAKDKILELYYYGMDVWGQGTTVTVSS
VL: not shown
notes: human IgG1 Fc with N297Q point mutation; also called H1H27760P2-N297Q; H1H27760P2
For the molecule B5, the figures for the “t½” value in test [1] and in test [2] were 13 min and 16 min, respectively.

B6: H1H27751P-N297Q (antibody, V domains shown)
VH: EVQLVESGGGLVQPGGSLRLSCAASGFTFSNYAMHWVRQAPGKGLEYVSAISSNGGSTYYADSVKGRITISRDNSKNTLYLQMGSLRAEDMAVYYCARGRPYYYYFGMDVWGQGTTVTVSS
VL: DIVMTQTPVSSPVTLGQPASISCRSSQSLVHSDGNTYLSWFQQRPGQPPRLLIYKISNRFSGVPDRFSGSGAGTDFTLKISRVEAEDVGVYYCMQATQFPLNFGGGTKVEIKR
notes: as for B1
Regarding B6, the “t½” value in test [1] came out at 38 min; in test [2] it was 15 min.

B7: H1H27761P-N297Q (antibody, V domains shown)
VH: EVQLVESGGDLVQPGGSLRLSCSASGFTFNIYAMSWVRQAPGKGLEWVSGISGSGGSTYYADSVKGRFTISRDNSKNTLYFQMNSLRVEDTAVYYCAKKISSSSYYYYAMDVWGQGTTVTVSS
VL: not shown
notes: human IgG1 Fc with N297Q point mutation; also called H1H27761P2-N297Q; H1H27761P2
As for B7, the “t½” value in test [1] was 23 min; in test [2], 19 min.

B8: H1H27766P-N297Q (antibody, V domains shown)
VH: EVQLVESGGGLVQPGGSLRLSCAASGFTFSSFAMSWVRQAPGKELEWVSSISGRGGSTYYADSVRGRFTISRDNSKITLYLQMNSLRAEDTAVYYCAKDIVFRYTSSAYWYFDLWGRGTLVTVSS
VL: not shown
notes: human IgG1 Fc with N297Q point mutation; also called H1H27766P2-N297Q; H1H27766P2
Take B8: the “t½” value in test [1] amounted to 620 min; in test [2] it was 145 min.

B9: H1H27756P-N297Q (antibody, V domains shown)
VH: QVQLVESGGGVVQPGRSLRLSCAASGFTFSNYDMHWVRQAPGKGLEWMAVISYDGINKYYADSVKGRFTISRDNSKNTLYLQMNSLRAEDTAVYYCAKGTYSWYFDLWGRGTLVTVSS
VL: not shown
notes: as for B1
B9: the “t½” value in test [1] came out at 94 min; in test [2] it was 5 min.

B10: H1H27734P-N297Q (antibody, V domains shown)
VH: EVQLVESRGGLVQPGGSLRLSCAASGFTFSSYAMSWVRQAPGKGLEWVSAISGSGGSTFYADSVKGRFTISRDNSKNTVYLQMNSLRAEDTAVYYCAKALVLRFLEWLGDYWGQGTLVTVSS
VL: DIQMTQSPSTLSASVGDRVTITCRASQSISSWLAWFQQKPGKAPKLLIYKASSLESGVPSRFSGSGSGTEFTLTISSLQPDDFATYYCQQYKSYWTFGQGTKVEIKR
notes: as for B1
Consider B10, for which the results for the “t½” value in test [1] and in test [2] were 10 min and 4 min, respectively.

B11: H1H27732P-N297Q (antibody, V domains shown)
VH: QLQLQESGPGLVKPSETLSLTCTVSGGSISSSTYYWGWIRQPPGKGLEWIGSFYYSGSTYYNPSLKSRVTISVGTSKNQFSLKLSSVTAADTAVYFCARGGLLGRPFVIWGQGTMVTVSS
VL: DIQMTQSPSSLSASVGDRVTITCRASQGIRNDLGWYQQKPGKAPKRLIYAASSLQSGVPSRFSGSGSGTEFTLTISSLQPEDFATYYCLQHNSYPLTFGGGTKVEIKR
notes: as for B1
On to B11, for which the “t½” value was 1160 min in test [3] and 364 min in test [2].

B12: H1H27729P-N297Q (antibody, V domains shown)
VH: QVQLVESGGGLVKPGGSLRLSCAASGFIFSDYYMSWIRQAPGKGLEWVSYISSSGTTIYGDSVKGRFTMSRDNAKNSLYLQMNSLRAEDTAVYYCARNYALFDYWGQGTLVTVSS
VL: DIQMTQSPSSLSASVGDRVTITCQASQDISKYLNWYQQKPGKAPKLLIYYTSNLETGVPSRFSGSGSGTDFTFTISSLQPEDIATYYCHQSDYLPFTFGPGTKVDIKR
notes: as for B1
Take B12: the “t½” value in test [1] was determined as 11 min; in test [2], 5 min.

B13: H1H27731P-N297Q (antibody, V domains shown)
VH: QLQLQESGPGLVKPSETLSLTCTVSGGSISRISYYWGWIRQPPGKGLEWIGSIYDSGSTYYNPSLKSRVTISIDTSKNQFSLKLSSVTAADTAVYYCVRYSSSSAFAFDYWGQGTLVTVSS
VL: DIQMTQSPSSVSASVGDRVTITCRASQGISSWLAWYQQKPGKAPKLLIYAASSLQSGVPSRFSGSGSGTDFTLTISSLQPEDFATYYCQQANSFPFTFGPGTKVDIKR
notes: as for B1
For the molecule B13, the “t½” value turned out to be 515 min in test [1] and 247 min in test [2].

B14: H1H27754P-N297Q (antibody, V domains shown)
VH: EVQLVESGGGLVQPGGSLRLSCAASGFTFRTYAMTWVRQAPGKGLDWVSAITGDGGNTYYADSVKGRFTISRDNSKNTLYLQMNSLRAEDTAIYYCAKDQRFSFALYYFDYWGQGTLVTVSS
VL: DIQMTQSPSSVSASVGDRVTITCRASQGISSWLAWYQQKPGNAPKLLIYAAFSLQSGVPSRFSGSGSGTDFTLTISSLQPEDFATYYCQQANNFPWTFGQGTKVEIKR
notes: as for B1
For B14, the “t½” value in test [3] is 1160 min; in test [2] it was 657 min.

B15: H1H27747P-N297Q (antibody, V domains shown)
VH: QVQLVESGGAVVQPGRSLRLSCAASGFTFSYYGMHWVRQAPGKGLEWVAVISYDGSKKYYADSVKGRFTISRDNSKNTLYLQMNSLRAEDTAVYYCAKDLTVDFYYGMDVWGQGTTVTVSS
VL: DIQMTQSPSSVSASVGDRVTITCRASQGISSWLAWYQQKPGKAPKLLIYATSSLQSGAPSRFSGSGSGTDFTLTISSLQPEDFATYFCQQANSFPYTFGQGTKLEIKR
notes: as for B1
As for B15, the “t½” value in test [2] was found to be 13 min.
